Laboratory results taken from paper PMC5311907, “ClickIn: a flexible protocol for quantifying mitochondrial uptake of nucleobase derivatives” (Interface Focus, 2017).

Tested on: isolated rat liver mitochondria
Assay: ClickIn/MPP uptake experiment in isolated rat liver mitochondria (MALDI-TOF quantification of clicked, processed PNA 8)
Type: in vitro ADME
Method: Rat liver mitochondria were prepared by differential centrifugation as previously described, and diluted to a 20 mg protein ml^−1 concentration in STE buffer (250 mM sucrose, 5 mM Tris, 1 mM EGTA, pH 7.4) and stored for a maximum of 3 h on ice. Peptide–PNA 6 was dissolved at the indicated concentrations in 100 µl KCl buffer (120 mM KCl, 10 mM HEPES, 1 mM EGTA, 1 mM ADP, 1 mM MgCl2, 1 mM KPi, 0.05% BSA, pH 7.4) supplemented with 10 mM potassium succinate, 4 µg ml^−1 rotenone and 10 µM MitoOct. Where indicated carbonyl cyanide-4-(trifluoromethoxy)phenylhydrazone (FCCP, 500 nM) was added to the buffer. The buffer was warmed for 5 min at 37°C after which the reaction was initiated by addition of 5 µl mitochondria suspension (100 µg protein). The mitochondria were incubated for 1 h at 37°C, after which the reaction was stopped by the addition of 3-phenyl-1,2,4,5-tetrazine (PhTet, 50 µM). The mitochondria were pelleted by centrifugation at 16 000g for 1 min, and supernatant was removed. Next 100 µl 20% acetonitrile solution with 0.1% formic acid, 50 µM PhTet and 0.1 µM internal standard 5 was added to the pellet. The pellet was suspended by three cycles of freezing in solid CO2 (5 min) and sonication in a Grant XB2 ultrasonic bath. The obtained solution was centrifuged at 16 000g for 10 min. The sample was spotted onto an MALDI-plate using the bottom-layer method. Matrix (0.75 µl, 50% acetonitrile, 5 mg ml^−1 α-cyano-4-hydroxycinnamic acid, 10 mM dibasic ammonium citrate, 0.1% TFA) was spotted on the plate and 0.75 µl sample was mixed in. The spot was left to dry at room temperature, after which another layer of 0.75 µl of matrix was added. In total, 20 spectra with 10 shots each were collected per spot, using a minimum intensity of 1000 and a maximum of 10 000 as selection criterion, averages were taken of three spots per experiment. All experiments were performed in triplicate using different mitochondrial preparations and are presented as averages ±s.e.m.
Isolated rat liver mitochondria were incubated with various concentrations of peptide (0.1–10 µM) in import buffer, in the presence of MitoOct, for 1 h at 37°C. As previously described, the reaction was stopped by addition of PhTET and centrifugation. The pellet was extracted (20% acetonitrile, 0.1% formic acid, 50 µM PhTet, 0.1 μM 5) and analysed by MALDI-TOF (figure 3 and electronic supplementary material, S1). […] This is consistent with FCCP not only inhibiting the ClickIn reaction, but also inhibiting the processing of COX8-PNA-click by stopping import of 6. The absence of signal in the presence of FCCP is striking (figure 3 and electronic supplementary material, S1), and enables the qualitative observation of PNA uptake in isolated mitochondria. […] It is interesting to note that, even though the MPP is known to cleave after the 25th residue of the COX8 pre-sequence, we see no evidence of the four amino acids, IHSL, predicted to remain at the N-terminal of our cleaved product. Our previous unpublished results have shown a very minor amount of the PNA product still carrying leucine at the N-terminal but not any of the remaining amino acids. It is likely that these residues are removed by a protease residing in the mitochondrial matrix.

“COX8-Cys-Ac-GTCA-Lys(N3)-NH2 [compound 6]” was tested, and the “formation of product 8 in the presence of FCCP (uncoupled membrane potential)” value (as the uptake experiment, plus FCCP 500 nM, all added concentrations of 6 (0.1–10 µM), 1 h at 37°C, MALDI-TOF) was “no product 8 could be observed”, the “formation of clicked PNA (product 8) as measure of mitochondrial matrix import” value (isolated rat liver mitochondria (100 µg protein) in 100 µl KCl buffer pH 7.4, 10 mM succinate, 4 µg/ml rotenone, 10 µM MitoOct, 0.1–10 µM 6, 1 h at 37°C, stopped with 50 µM PhTet, pellet extract, MALDI-TOF with 0.1 µM internal standard 5, triplicate, different mitochondrial preparations) was “Significant amounts of clicked PNA were observed in all samples” and the “concentration dependence of the ClickIn/MPP reaction (quantified 8)” value (isolated rat liver mitochondria, 10 µM MitoOct, 1 h at 37°C, MALDI-TOF with internal standard 5, figure 3c, averages ± s.e.m., triplicate) was “typical dose–response curve for concentrations of 6 up to 5 µM”. For the same substance, the “cleaved but not clicked 6 seen in mass spectra” value (isolated rat liver mitochondria, 10 µM MitoOct, 1 h at 37°C, MALDI-TOF, without FCCP, not observed in the presence of FCCP) was “small amounts of cleaved but not clicked 6” and the “toxic effect on the mitochondria” value (isolated rat liver mitochondria, concentrations of 6 higher than 5 µM, inferred from the dose–response curve) was “might have a toxic effect on the mitochondria”.
